Our source for the Kd values is PMC9288159, “Identification of a guanine-specific pocket in the protein N of SARS-CoV-2”.

Usually Kd stands for the constant that tells how readily two partners part at equilibrium.

The target of this series is SARS-CoV-2 N protein C-terminal domain (NCTD) (SARS-CoV-2, UniProt P0DTC9 256-364). In words: EMSA; […]; binding buffer not stated ([…]. The settings on record: protein: recombinant; tags: N-terminal His6-TEV site (pET28a); chain copies: 2; label: 5' IRDye-800CW.

For CGGUUUCGCCG (ssRNA) [Oligo-G (SL5a apical region)], the Kd was 32 ± 5 nM.
